Laboratory results as given in FireProtDB (doi:10.1002/prot.1088).
Values joined by “and” are separate entries in the source; they are usually repeats but may differ in a detail not shown here. Identical values can stand only once.

B1: Lysozyme C, P61626 (parent)
chain: MKALIVLGLVLLSVTVQGKVFERCELARTLKRLGMDGYRGISLANWMCLAKWESGYNTRATNYNAGDRSTDYGIFQINSRYWCNDGKTPGAVNACHLSCSALLQDNIADAVACAKRVVRDPQGIRAWVAWRNRCQNRDVRQYVQGCGV

Variants of: B1
Conditions: Homo sapiens; pH 2.5; Thermal; DSC; Gly-HCl 0.05 M; reversible: yes; structure 1LZ1; whole UniProt chain shown

Variant | Tm [°C] | unfolding enthalpy (calorimetric) [kcal/mol] | unfolding enthalpy (van 't Hoff) [kcal/mol]
MKALIVLGLVLLSVTVQGKVFERCELARTLKRLGMDGYRGISLANWMCLAKWESGYNTRATNYNAGDASTDYGIFQINSRYWCNDGKTPGAVNACHLSCSALLQDNIADAVACAKRVVRDPQGIRAWVAWRNRCQNRDVRQYVQGCGV | 62.8 | 101 | 108
MKALIVLGLVLLSVTVQGKVFERCELARTLKRLGMDGYRGISLANWMCLAKWESGYNTRATNYNAGDRSTDYGIFAINSRYWCNDGKTPGAVNACHLSCSALLQDNIADAVACAKRVVRDPQGIRAWVAWRNRCQNRDVRQYVQGCGV | 64.5 | 97 | 103

Same assay, conditions: Homo sapiens; pH 2.7; 64.9 °C; Thermal; DSC; Gly-HCl 0.05 M; reversible: yes; structure 1LZ1; whole UniProt chain shown

Variant | ddG of mutation (higher = less stable) [kcal/mol]
MKALIVLGLVLLSVTVQGKVFERCELARTLKRLGMDGYRGISLANWMCLAKWESGYNTRATNYNAGDASTDYGIFQINSRYWCNDGKTPGAVNACHLSCSALLQDNIADAVACAKRVVRDPQGIRAWVAWRNRCQNRDVRQYVQGCGV | -0.43
MKALIVLGLVLLSVTVQGKVFERCELARTLKRLGMDGYRGISLANWMCLAKWESGYNTRATNYNAGDRSTDYGIFAINSRYWCNDGKTPGAVNACHLSCSALLQDNIADAVACAKRVVRDPQGIRAWVAWRNRCQNRDVRQYVQGCGV | -0.91
MKALIVLGLVLLSVTVQGKVFERCELARTLKRLGMDGYRGISLANWMCLAKWESGYNTRATNYNAGDRSTDYGIFQINSRYWCNDGKTPGAVNACHLSCSALLQDNIADAVACAKRVVRDPQGIRAWVAWRNRCQARDVRQYVQGCGV | -0.19
MKALIVLGLVLLSVTVQGKVFERCELARTLKRLGMDGYRGISLANWMCLAKWESGYNTRATNYNAGDRSTDYGIFQINSRYWCNDGKTPGAVNACHLSCSALLQDNIADAVACAKRVVRDPQGIRAWVAWRNRCQGRDVRQYVQGCGV | -0.05

Same assay, conditions: Homo sapiens; pH 2.7; Thermal; DSC; Gly-HCl 0.05 M; reversible: yes; structure 1LZ1; whole UniProt chain shown

Variant | Tm | change of melting temperature, mutant - wild type (higher = more stable) [°C] | heat capacity change of unfolding [kcal/mol/K] | unfolding enthalpy (calorimetric) | unfolding enthalpy (van 't Hoff) [kcal/mol]
MKALIVLGLVLLSVTVQGKVFERCELARTLKRLGMDGYRGISLANWMCLAKWESGYNTRATNYNAGDASTDYGIFQINSRYWCNDGKTPGAVNACHLSCSALLQDNIADAVACAKRVVRDPQGIRAWVAWRNRCQNRDVRQYVQGCGV | 66.3 °C | 1.4 | 1.51 | 104 kcal/mol | 
MKALIVLGLVLLSVTVQGKVFERCELARTLKRLGMDGYRGISLANWMCLAKWESGYNTRATNYNAGDRSTDYGIFAINSRYWCNDGKTPGAVNACHLSCSALLQDNIADAVACAKRVVRDPQGIRAWVAWRNRCQNRDVRQYVQGCGV | 67.8 °C and 68 °C | 3.1 | 1.65 | 104 kcal/mol and 98.2 kcal/mol | 113
MKALIVLGLVLLSVTVQGKVFERCELARTLKRLGMDGYRGISLANWMCLAKWESGYNTRATNYNAGDRSTDYGIFQINSRYWCNDGKTPGAVNACHLSCSALLQDNIADAVACAKRVVRDPQGIRAWVAWRNRCQARDVRQYVQGCGV | 65.5 °C | 0.6 | 1.24 | 104 kcal/mol | 
MKALIVLGLVLLSVTVQGKVFERCELARTLKRLGMDGYRGISLANWMCLAKWESGYNTRATNYNAGDRSTDYGIFQINSRYWCNDGKTPGAVNACHLSCSALLQDNIADAVACAKRVVRDPQGIRAWVAWRNRCQGRDVRQYVQGCGV | 65.1 °C | 0.2 | 1.65 | 101 kcal/mol | 

Same assay, conditions: Homo sapiens; pH 2.71; Thermal; DSC; Gly-HCl 0.05 M; reversible: yes; structure 1LZ1; whole UniProt chain shown

Variant | Tm [°C] | unfolding enthalpy (calorimetric) [kcal/mol] | unfolding enthalpy (van 't Hoff) [kcal/mol]
MKALIVLGLVLLSVTVQGKVFERCELARTLKRLGMDGYRGISLANWMCLAKWESGYNTRATNYNAGDASTDYGIFQINSRYWCNDGKTPGAVNACHLSCSALLQDNIADAVACAKRVVRDPQGIRAWVAWRNRCQNRDVRQYVQGCGV | 66.6 | 106 | 113

Same assay, conditions: Homo sapiens; pH 2.84; Thermal; DSC; Gly-HCl 0.05 M; reversible: yes; structure 1LZ1; whole UniProt chain shown

Variant | Tm [°C] | unfolding enthalpy (calorimetric) [kcal/mol] | unfolding enthalpy (van 't Hoff) [kcal/mol]
MKALIVLGLVLLSVTVQGKVFERCELARTLKRLGMDGYRGISLANWMCLAKWESGYNTRATNYNAGDASTDYGIFQINSRYWCNDGKTPGAVNACHLSCSALLQDNIADAVACAKRVVRDPQGIRAWVAWRNRCQNRDVRQYVQGCGV | 69.1 | 109 | 117

Same assay, conditions: Homo sapiens; pH 3; Thermal; DSC; Gly-HCl 0.05 M; reversible: yes; structure 1LZ1; whole UniProt chain shown

Variant | Tm [°C] | unfolding enthalpy (calorimetric) [kcal/mol] | unfolding enthalpy (van 't Hoff) [kcal/mol]
MKALIVLGLVLLSVTVQGKVFERCELARTLKRLGMDGYRGISLANWMCLAKWESGYNTRATNYNAGDASTDYGIFQINSRYWCNDGKTPGAVNACHLSCSALLQDNIADAVACAKRVVRDPQGIRAWVAWRNRCQNRDVRQYVQGCGV | 70.9 | 114 | 121

Same assay, conditions: Homo sapiens; pH 3.1; Thermal; DSC; Gly-HCl 0.05 M; reversible: yes; structure 1LZ1; whole UniProt chain shown

Variant | Tm [°C] | unfolding enthalpy (calorimetric) [kcal/mol] | unfolding enthalpy (van 't Hoff) [kcal/mol]
MKALIVLGLVLLSVTVQGKVFERCELARTLKRLGMDGYRGISLANWMCLAKWESGYNTRATNYNAGDRSTDYGIFAINSRYWCNDGKTPGAVNACHLSCSALLQDNIADAVACAKRVVRDPQGIRAWVAWRNRCQNRDVRQYVQGCGV | 75.1 | 115 | 123
MKALIVLGLVLLSVTVQGKVFERCELARTLKRLGMDGYRGISLANWMCLAKWESGYNTRATNYNAGDRSTDYGIFQINSRYWCNDGKTPGAVNACHLSCSALLQDNIADAVACAKRVVRDPQGIRAWVAWRNRCQGRDVRQYVQGCGV | 71.6 | 113 | 119

Same assay, conditions: Homo sapiens; pH 2.51; Thermal; DSC; Gly-HCl 0.05 M; reversible: yes; structure 1LZ1; whole UniProt chain shown

Variant | Tm [°C] | unfolding enthalpy (calorimetric) [kcal/mol] | unfolding enthalpy (van 't Hoff) [kcal/mol]
MKALIVLGLVLLSVTVQGKVFERCELARTLKRLGMDGYRGISLANWMCLAKWESGYNTRATNYNAGDRSTDYGIFQINSRYWCNDGKTPGAVNACHLSCSALLQDNIADAVACAKRVVRDPQGIRAWVAWRNRCQARDVRQYVQGCGV | 62.1 | 99.9 | 106

Same assay, conditions: Homo sapiens; pH 2.74; Thermal; DSC; Gly-HCl 0.05 M; reversible: yes; structure 1LZ1; whole UniProt chain shown

Variant | Tm [°C] | unfolding enthalpy (calorimetric) [kcal/mol] | unfolding enthalpy (van 't Hoff) [kcal/mol]
MKALIVLGLVLLSVTVQGKVFERCELARTLKRLGMDGYRGISLANWMCLAKWESGYNTRATNYNAGDRSTDYGIFQINSRYWCNDGKTPGAVNACHLSCSALLQDNIADAVACAKRVVRDPQGIRAWVAWRNRCQARDVRQYVQGCGV | 66.2 | 107 | 112
MKALIVLGLVLLSVTVQGKVFERCELARTLKRLGMDGYRGISLANWMCLAKWESGYNTRATNYNAGDRSTDYGIFQINSRYWCNDGKTPGAVNACHLSCSALLQDNIADAVACAKRVVRDPQGIRAWVAWRNRCQGRDVRQYVQGCGV | 65.7 | 103 | 110

Same assay, conditions: Homo sapiens; pH 2.87; Thermal; DSC; Gly-HCl 0.05 M; reversible: yes; structure 1LZ1; whole UniProt chain shown

Variant | Tm [°C] | unfolding enthalpy (calorimetric) [kcal/mol] | unfolding enthalpy (van 't Hoff) [kcal/mol]
MKALIVLGLVLLSVTVQGKVFERCELARTLKRLGMDGYRGISLANWMCLAKWESGYNTRATNYNAGDRSTDYGIFQINSRYWCNDGKTPGAVNACHLSCSALLQDNIADAVACAKRVVRDPQGIRAWVAWRNRCQARDVRQYVQGCGV | 68.6 | 109 | 117

Same assay, conditions: Homo sapiens; pH 3.02; Thermal; DSC; Gly-HCl 0.05 M; reversible: yes; structure 1LZ1; whole UniProt chain shown

Variant | Tm [°C] | unfolding enthalpy (calorimetric) [kcal/mol] | unfolding enthalpy (van 't Hoff) [kcal/mol]
MKALIVLGLVLLSVTVQGKVFERCELARTLKRLGMDGYRGISLANWMCLAKWESGYNTRATNYNAGDRSTDYGIFQINSRYWCNDGKTPGAVNACHLSCSALLQDNIADAVACAKRVVRDPQGIRAWVAWRNRCQARDVRQYVQGCGV | 70.9 | 111 | 118

Same assay, conditions: Homo sapiens; pH 2.95; Thermal; DSC; Gly-HCl 0.05 M; reversible: yes; structure 1LZ1; whole UniProt chain shown

Variant | Tm [°C] | unfolding enthalpy (calorimetric) [kcal/mol] | unfolding enthalpy (van 't Hoff) [kcal/mol]
MKALIVLGLVLLSVTVQGKVFERCELARTLKRLGMDGYRGISLANWMCLAKWESGYNTRATNYNAGDRSTDYGIFQINSRYWCNDGKTPGAVNACHLSCSALLQDNIADAVACAKRVVRDPQGIRAWVAWRNRCQGRDVRQYVQGCGV | 69.3 | 107 | 115
